Molecular target: 6xHis-MBP-PmARF1^DBD (Penium margaritaceum AB-class ARF1 DNA-binding domain) (Penium margaritaceum)
Test: SEC-MALS; 6xHis-MBP-PmARF1^DBD at 1 mg/ml in 1x PBS, Superdex 200 Increase 10/300 GL, room temperature

6xHis-MBP-PmARF1^DBD (Penium margaritaceum AB-class ARF1 DNA-binding domain) (domain or fragment)
stoichiometry N: 2

Reference: PMC11685440
